Source: US20190185581A1 (University of California, published 2019)

Assays:
[1] = target: T1, catalytic domain of MMP-14 (cdMMP-14) (human, UniProt P50281 114-287, limits assumed, biotinylated (Sulfo-NHS-LC-Biotin) where immobilised via streptavidin); experiment: surface plasmon resonance (Biacore), MMP-14 immobilised on the chip, Fab 3A2 injected at 10 nM; table beside the sensorgrams
T1 construct: also called matrix metalloproteinase-14 catalytic domain; wild-type MMP-14

[2] = target: T1, catalytic domain of MMP-14 (cdMMP-14); experiment: surface plasmon resonance (Biacore), MMP-14 immobilised on the chip, Fab 3A2 injected at 15 nM; table beside the sensorgrams
[3] = target: T1, catalytic domain of MMP-14 (cdMMP-14); experiment: summary sentence on the Examples; method not given
[4] = target: T2, catalytic domain of MMP-9 (cdMMP-9) (human, UniProt P14780 107-443, limits assumed); experiment: ELISA, purified Fab at 50, 100, 250 and 500 nM on immobilised MMP catalytic domain, anti-Fab-HRP, OD450
T2 sequence: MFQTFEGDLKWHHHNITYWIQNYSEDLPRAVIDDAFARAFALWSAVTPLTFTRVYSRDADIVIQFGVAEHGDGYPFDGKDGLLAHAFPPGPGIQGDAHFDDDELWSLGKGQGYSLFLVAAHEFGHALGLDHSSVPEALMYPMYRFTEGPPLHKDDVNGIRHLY

[5] = target: catalytic domain of MMP-2 (human, UniProt P08253 115-449, limits assumed, biotinylated (Sulfo-NHS-LC-Biotin)); experiment: as above
catalytic domain of MMP-2, sequence (P08253 other isoform, or with tags, fused parts or gaps limits assumed): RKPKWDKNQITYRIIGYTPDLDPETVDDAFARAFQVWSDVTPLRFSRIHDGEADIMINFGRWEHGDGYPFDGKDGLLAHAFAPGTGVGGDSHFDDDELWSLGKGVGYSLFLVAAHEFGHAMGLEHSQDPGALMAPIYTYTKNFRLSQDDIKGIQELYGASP

[6] = target: T1, catalytic domain of MMP-14 (cdMMP-14); experiment: ELISA, Fab titrated on immobilised MMP-14 catalytic domain, anti-Fab-HRP
Procedure: (§1) Bound Fabs were detected using the anti-Fab-HRP conjugate. The half-maximal effective concentration (EC₅₀) was calculated from a four-parametric logistic curve-fitting analysis.

[7] = target: T1, catalytic domain of MMP-14 (cdMMP-14); experiment: cell-based or functional assay
[8] = target: T1, catalytic domain of MMP-14 (cdMMP-14); experiment: summary sentence on the Examples; enzyme inhibition
[9] = target: T1, catalytic domain of MMP-14 (cdMMP-14); experiment: SPR (Biacore), MMP-14 amine-coupled to the chip, Fab as analyte, 25 °C
[10] = target: T1, catalytic domain of MMP-14 (cdMMP-14); experiment: SPR (Biacore), KD from koff/kon
[11] = target: T3, MMP-14 catalytic domain mutant F260A (human, UniProt P50281 114-287, limits assumed); experiment: competitive ELISA: 10 nM Fab 3A2 incubated with the mutant, then captured on immobilised wild-type MMP-14
T3 construct: also called F260A MMP-14 mutant
Procedure: as §1

[12] = target: T1, catalytic domain of MMP-14 (cdMMP-14); experiment: surface plasmon resonance (Biacore), MMP-14 immobilised on the chip, Fab 3A2 injected at 20 nM; table beside the sensorgrams
[13] = target: MMP-14 catalytic domain mutant N231A (human, UniProt P50281 114-287, limits assumed); experiment: cell-based or functional assay
[14] = target: MMP-14 catalytic domain mutant F204A (human, UniProt P50281 114-287, limits assumed); experiment: cell-based or functional assay
[15] = target: T3, MMP-14 catalytic domain mutant F260A; experiment: cell-based or functional assay
[16] = target: MMP-14 catalytic domain mutant T190A (human, UniProt P50281 114-287, limits assumed); experiment: cell-based or functional assay
[17] = target: MMP-14 catalytic domain mutant Y203A (human, UniProt P50281 114-287, limits assumed); experiment: cell-based or functional assay
[18] = target: MMP-14 catalytic domain mutant F198A (human, UniProt P50281 114-287, limits assumed); experiment: cell-based or functional assay
[19] = target: T1, catalytic domain of MMP-14 (cdMMP-14); experiment: cell-based or functional assay; remark: listed apart in the source
[20] = target: T1, catalytic domain of MMP-14 (cdMMP-14); experiment: ELISA, Fab titrated on immobilised biotin-cdMMP-14, anti-Fab-HRP

B1: Fab 3A2 (Fab, V domains shown)
VH: EVQLVESGGGLVQPGGSLRLSCAASGFNLSSSSMHWVRQAPGKGLEWVASIYPSYSYTYYADSVKGRFTISADTSKNTAYLQMNSLRAEDTAVYYCARVKLQKDKSHQWIRNLVATPYGRYVMDYWGQGTLVTVSS
VL: DIQMTQSPSSLSASVGDRVTITCRASQSVSSAVAWYQQKPGKAPKLLIYSASSLYSGVPSRFSGSRSGTDFTLTISSLQPEDFATYYCQQYGYPITFGQGTKVEIKR
notes: also called R3C9; not shown: His tag at the C-terminus of the heavy chain
Kd [1]: 1.74 nM
koff [1]: 0.000667 s⁻¹
kon [1]: 383000 M⁻¹ s⁻¹
Kd [2]: 3.64 nM
koff [2]: 0.00125 s⁻¹
kon [2]: 344000 M⁻¹ s⁻¹
Kd [3]: 4.85 nM
binding result [4]: no binding (tested: 500 nM)
binding result [5]: no binding (tested: 500 nM)
EC50 [6]: 3.8 nM
IC50 by FRET Assay [7]: 9.7 nM
Ki [8]: 10 nM
koff [9]: 0.00179 s⁻¹
kon [9]: 368000 M⁻¹ s⁻¹
Kd [10]: 4.76 nM
binding result [11]: no binding (tested: 0-2,000 nM mutant)
Kd [12]: 9.17 nM
koff [12]: 0.00347 s⁻¹
kon [12]: 378000 M⁻¹ s⁻¹
inhibition (%) of peptide cleavage: 50 nM MMP-14 mutant, 5 uM Fab 3A2, 1 uM quenched fluorescent substrate [13]: 90%
inhibition (%) of peptide cleavage: 50 nM MMP-14 mutant, 5 uM Fab 3A2, 1 uM quenched fluorescent substrate [14]: 96%
inhibition (%) of peptide cleavage: 50 nM MMP-14 mutant, 5 uM Fab 3A2, 1 uM quenched fluorescent substrate [15]: 0%
inhibition (%) of peptide cleavage: 50 nM MMP-14 mutant, 5 uM Fab 3A2, 1 uM quenched fluorescent substrate [16]: 95%
inhibition (%) of peptide cleavage: 50 nM MMP-14 mutant, 5 uM Fab 3A2, 1 uM quenched fluorescent substrate [17]: 98%
inhibition (%) of peptide cleavage: 50 nM MMP-14 mutant, 5 uM Fab 3A2, 1 uM quenched fluorescent substrate [18]: 98%
Inhibition potency (FRET IC50) [19]: 9.7 nM
EC50 [20]: 3.8 nM
